From patent US20190142860A1, “NUCLEIC ACID BASED TIA-1 INHIBITORS” (Aquinnah Pharmaceuticals, Inc., priority 2015, published 2019)

Legend:
[1] = target: Nucleolysin TIA-1 (endogenous mouse TIA1) (mouse) (UniProt P52912); assay: TIA1 IP-MS, WT2 cortex
[2] = target: Nucleolysin TIA-1 (endogenous mouse TIA1) (mouse) (UniProt P52912); assay: TIA1 IP-MS, tau KO 2 cortex
[3] = target: Nucleolysin TIA-1 (endogenous mouse TIA1) (mouse) (UniProt P52912); assay: TIA1 IP-MS, WT3 cortex
[4] = target: Nucleolysin TIA-1 (endogenous mouse TIA1) (mouse) (UniProt P52912); assay: TIA1 IP-MS, tau KO 1 cortex
[5] = target: Nucleolysin TIA-1 (endogenous mouse TIA1) (mouse) (UniProt P52912); assay: TIA1 IP-MS, tau KO 3 cortex
[6] = target: Nucleolysin TIA-1 (endogenous mouse TIA1) (mouse) (UniProt P52912); assay: TIA1 IP-MS, WT1 cortex

UniProt P52912, sequence (P52912 whole entry): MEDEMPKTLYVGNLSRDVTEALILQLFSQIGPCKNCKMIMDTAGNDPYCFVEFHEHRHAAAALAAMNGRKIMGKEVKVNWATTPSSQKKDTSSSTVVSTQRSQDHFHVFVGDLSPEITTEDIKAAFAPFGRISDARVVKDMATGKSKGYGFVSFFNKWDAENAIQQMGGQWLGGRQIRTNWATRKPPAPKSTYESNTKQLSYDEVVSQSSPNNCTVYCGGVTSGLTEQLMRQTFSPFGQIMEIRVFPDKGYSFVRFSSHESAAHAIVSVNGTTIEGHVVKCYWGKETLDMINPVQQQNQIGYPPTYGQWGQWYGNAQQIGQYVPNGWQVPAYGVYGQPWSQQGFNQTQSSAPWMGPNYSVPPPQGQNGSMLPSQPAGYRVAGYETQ

Substance: Calcium-binding mitochondrial carrier protein Aralar1 (from UniProt Q8BH59 2-677)
- total ion current (normalized to TIA1 = 1000) [1]: 181
- total ion current (normalized to TIA1 = 1000) [2]: 231
- total ion current (normalized to TIA1 = 1000) [3]: 21.6
- total ion current (normalized to TIA1 = 1000) [4]: 0
- total ion current (normalized to TIA1 = 1000) [5]: 0
- total ion current (normalized to TIA1 = 1000) [6]: 0

Substance: Calcium-transporting ATPase (from UniProt Q6Q477 1-1205)
- total ion current (normalized to TIA1 = 1000) [1]: 274
- total ion current (normalized to TIA1 = 1000) [2]: 144
- total ion current (normalized to TIA1 = 1000) [3]: 0
- total ion current (normalized to TIA1 = 1000) [4]: 0
- total ion current (normalized to TIA1 = 1000) [5]: 0
- total ion current (normalized to TIA1 = 1000) [6]: 0

Substance: Carbonic anhydrase 2 (from UniProt P00920 2-260)
- total ion current (normalized to TIA1 = 1000) [1]: 38.6
- total ion current (normalized to TIA1 = 1000) [2]: 58.4
- total ion current (normalized to TIA1 = 1000) [3]: 50.1
- total ion current (normalized to TIA1 = 1000) [4]: 0
- total ion current (normalized to TIA1 = 1000) [5]: 0
- total ion current (normalized to TIA1 = 1000) [6]: 0

Substance: Catenin beta-1 (from UniProt Q02248 2-781)
- total ion current (normalized to TIA1 = 1000) [1]: 0
- total ion current (normalized to TIA1 = 1000) [2]: 0
- total ion current (normalized to TIA1 = 1000) [3]: 0
- total ion current (normalized to TIA1 = 1000) [4]: 123
- total ion current (normalized to TIA1 = 1000) [5]: 0
- total ion current (normalized to TIA1 = 1000) [6]: 9.46

Substance: Centromere protein V (from UniProt Q9CXS4 1-252)
- total ion current (normalized to TIA1 = 1000) [1]: 234
- total ion current (normalized to TIA1 = 1000) [2]: 108
- total ion current (normalized to TIA1 = 1000) [3]: 106
- total ion current (normalized to TIA1 = 1000) [4]: 0
- total ion current (normalized to TIA1 = 1000) [5]: 0
- total ion current (normalized to TIA1 = 1000) [6]: 0

Substance: Clathrin heavy chain 1 (from UniProt Q68FD5 2-1675)
- total ion current (normalized to TIA1 = 1000) [1]: 58.5
- total ion current (normalized to TIA1 = 1000) [2]: 45.2
- total ion current (normalized to TIA1 = 1000) [3]: 0
- total ion current (normalized to TIA1 = 1000) [4]: 0
- total ion current (normalized to TIA1 = 1000) [5]: 0
- total ion current (normalized to TIA1 = 1000) [6]: 0

Substance: Clathrin light chain A (from UniProt O08585 1-235)
- total ion current (normalized to TIA1 = 1000) [1]: 90.8
- total ion current (normalized to TIA1 = 1000) [2]: 29
- total ion current (normalized to TIA1 = 1000) [3]: 145
- total ion current (normalized to TIA1 = 1000) [4]: 0
- total ion current (normalized to TIA1 = 1000) [5]: 0
- total ion current (normalized to TIA1 = 1000) [6]: 0

Substance: Cleavage and polyadenylation specificity factor subunit 6 (from UniProt Q6NVF9 1-551)
- total ion current (normalized to TIA1 = 1000) [1]: 147
- total ion current (normalized to TIA1 = 1000) [2]: 76.2
- total ion current (normalized to TIA1 = 1000) [3]: 0
- total ion current (normalized to TIA1 = 1000) [4]: 0
- total ion current (normalized to TIA1 = 1000) [5]: 0
- total ion current (normalized to TIA1 = 1000) [6]: 0

Substance: Cluster of Phosphatidylinositol 5-phosphate 4-kinase type-2 alpha (from UniProt O70172 2-405)
- total ion current (normalized to TIA1 = 1000) [1]: 75.3
- total ion current (normalized to TIA1 = 1000) [2]: 6.9
- total ion current (normalized to TIA1 = 1000) [3]: 18.8
- total ion current (normalized to TIA1 = 1000) [4]: 0
- total ion current (normalized to TIA1 = 1000) [5]: 0
- total ion current (normalized to TIA1 = 1000) [6]: 0

Substance: Cluster of Ras-related protein Rab-5C (from UniProt P35278 1-216)
- total ion current (normalized to TIA1 = 1000) [1]: 210
- total ion current (normalized to TIA1 = 1000) [2]: 213
- total ion current (normalized to TIA1 = 1000) [3]: 337
- total ion current (normalized to TIA1 = 1000) [4]: 0
- total ion current (normalized to TIA1 = 1000) [5]: 0
- total ion current (normalized to TIA1 = 1000) [6]: 0

Substance: Coronin-1A (from UniProt O89053 2-461)
- total ion current (normalized to TIA1 = 1000) [1]: 74.2
- total ion current (normalized to TIA1 = 1000) [2]: 31
- total ion current (normalized to TIA1 = 1000) [3]: 0
- total ion current (normalized to TIA1 = 1000) [4]: 0
- total ion current (normalized to TIA1 = 1000) [5]: 0
- total ion current (normalized to TIA1 = 1000) [6]: 0

Substance: Cytochrome b-c1 complex subunit 1, mitochondrial (from UniProt Q9CZ13 35-480)
- total ion current (normalized to TIA1 = 1000) [1]: 1320
- total ion current (normalized to TIA1 = 1000) [2]: 1030
- total ion current (normalized to TIA1 = 1000) [3]: 2460
- total ion current (normalized to TIA1 = 1000) [4]: 0
- total ion current (normalized to TIA1 = 1000) [5]: 0
- total ion current (normalized to TIA1 = 1000) [6]: 0

Substance: Dihydrolipoyl dehydrogenase, mitochondrial (from UniProt O08749 36-509)
- total ion current (normalized to TIA1 = 1000) [1]: 107
- total ion current (normalized to TIA1 = 1000) [2]: 31.3
- total ion current (normalized to TIA1 = 1000) [3]: 0
- total ion current (normalized to TIA1 = 1000) [4]: 0
- total ion current (normalized to TIA1 = 1000) [5]: 0
- total ion current (normalized to TIA1 = 1000) [6]: 0

Substance: Dihydrolipoyllysine-residue acetyltransferase component of pyruvate dehydrogenase complex, mitochondrial (from UniProt Q8BMF4 86-642)
- total ion current (normalized to TIA1 = 1000) [1]: 353
- total ion current (normalized to TIA1 = 1000) [2]: 130
- total ion current (normalized to TIA1 = 1000) [3]: 0
- total ion current (normalized to TIA1 = 1000) [4]: 0
- total ion current (normalized to TIA1 = 1000) [5]: 0
- total ion current (normalized to TIA1 = 1000) [6]: 0
